For data set [1], the system named is HeLa Kyoto. The data set can be described thus: solubility in G1/S (NP-40 vs SDS abundance) (log2 ratio); higher = more soluble. The settings on record: cell cycle stage: G1/S.
In data set [2] the test system is HeLa Kyoto. The data set can be described thus: melting temperature (median over replicates), in situ; higher = more thermally stable.
Data set [3] relates to HeLa Kyoto. The data set can be described thus: thermal stability score vs G1/S (z-score of summed log2 fold changes over temperatures); higher = more thermally stable than in G1/S.
In data set [4] the test system is HeLa Kyoto. The data set can be described thus: solubility change mitosis vs G1/S (difference of NP-40 vs SDS log2 ratios) (log2 ratio difference); higher = more soluble in mitosis.
Setting [5] is: cell cycle stage: early G1 (4.5 h after nocodazole release).
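Wherever melting temperature (median over replicates), in situ is given: HeLa Kyoto cells synchronized by double thymidine or nocodazole block, proteins quantified by TMT10plex mass spectrometry, three independent biological replicates.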
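Wherever solubility change mitosis vs G1/S (difference of NP-40 vs SDS log2 ratios) is given: synchronized HeLa Kyoto cells (double thymidine block for G1/S, nocodazole release for mitosis), protein amounts in NP-40 versus SDS lysates quantified by mass spectrometry, three biological replicates.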
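Wherever solubility in G1/S (NP-40 vs SDS abundance) is given: HeLa Kyoto cells arrested at G1/S by double thymidine block, proteins quantified by TMT10plex mass spectrometry in mild NP-40 versus SDS extracts, three biological replicates.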
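Wherever thermal stability score vs G1/S (z-score of summed log2 fold changes over temperatures) is given: synchronized HeLa Kyoto cells, proteins quantified by TMT10plex mass spectrometry, three biological replicates, mitosis taken 0.5 h after nocodazole release, G1/S directly after double thymidine block.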

For “MAQFGGQKNPPWATQFTATAVSQPAALGVQQPSLLGASPTIYTQQTALAAAGLTTQTPANYQLTQTAALQQQAAAAAAALQQQYSQPQQALYSVQQQLQQPQQTLLTQPAVALPTSLSLSTPQPTAQITVSYPTPRSSQQQTQPQKQRVFTGVVTKLHDTFGFVDEDVFFQLSAVKGKTPQVGDRVLVEATYNPNMPFKWNAQRIQTLPNQNQSQTQPLLKTPPAVLQPIAPQTTFGVQTQPQPQSLLQAQISAASITPLLQTQPQPLLQQPQQKAGLLQPPVRIVSQPQPARRLDPPSRFSGRNDRGDQVPNRKDDRSRERERERRRSRERSPQRKRSRERSPRRERERSPRRVRRVVPRYTVQFSKFSLDCPSCDMMELRRRYQNLYIPSDFFDAQFTWVDAFPLSRPFQLGNYCNFYVMHREVESLEKNMAILDPPDADHLYSAKVMLMASPSMEDLYHKSCALAEDPQELRDGFQHPARLVKFLVGMKGKDEAMAIGGHWSPSLDGPDPEKDPSVLIKTAIRCCKALTGIDLSVCTQWYRFAEIRYHRPEETHKGRTVPAHVETVVLFFPDVWHCLPTRSEWETLSRGYKQQLVEKLQGERKEADGEQDEEEKDDGEAKEISTPTHWSKLDPKTMKVNDLRKELESRALSSKGLKSQLIARLTKQLKVEEQKEEQKELEKSEKEEDEDDDRKSEDDKEEEERKRQEEIERQRRERRYILPDEPAIIVHPNWAAKSGKFDCSIMSLSVLLDYRLEDNKEHSFEVSLFAELFNEMLQRDFGVRIYKSLLSLPEKEDKKEKDKKSKKDERKDKKEERDDETDEPKPKRRKSGDDKDKKEDRDERKKEDKRKDDSKDDDETEEDNNQDEYDPMEAEEAEDEEDDRDEEEMTKRDDKRDINRYCKERPSKDKEKEKTQMITINRDLLMAFVYFDQSHCGYLLEKDLEEILYTLGLHLSRAQVKKLLNKVVLRESCFYRKLTDTSKDEENHEESESLQEDMLGNRLLLPTPTVKQESKDVEENVGLIVYNGAMVDVGSLLQKLEKSEKVRAEVEQKLQLLEEKTDEDEKTILNLENSNKSLSGELREVKKDLSQLQENLKISENMNLQFENQMNKTIRNLSTVMDEIHTVLKKDNVKNEDKDQKSKENGASV [CCAR1]”, the “solubility in G1/S (log2)” value with HeLa Kyoto [1] was -0.232. Besides, the values for the melting temperature in the data set on HeLa Kyoto [2] (cell cycle stage: G1/S) and in the data set with HeLa Kyoto [2] (cell cycle stage: mitosis) were 50.9 °C and 50.8 °C, respectively. Also, the values for the thermal stability score in the data set with HeLa Kyoto [3] (setting [5]) and in the data set with HeLa Kyoto [3] (cell cycle stage: mitosis) were 0.304 and 1.74, respectively. Further, the “solubility change mitosis (log2)” value in the data set with HeLa Kyoto [4] came out at 0.0916.
With “MAQHFSLAACDVVGFDLDHTLCRYNLPESAPLIYNSFAQFLVKEKGYDKELLNVTPEDWDFCCKGLALDLEDGNFLKLANNGTVLRASHGTKMMTPEVLAEAYGKKEWKHFLSDTGMACRSGKYYFYDNYFDLPGALLCARVVDYLTKLNNGQKTFDFWKDIVAAIQHNYKMSAFKENCGIYFPEIKRDPGRYLHSCPESVKKWLRQLKNAGKILLLITSSHSDYCRLLCEYILGNDFTDLFDIVITNALKPGFFSHLPSQRPFRTLENDEEQEALPSLDKPGWYSQGNAVHLYELLKKMTGKPEPKVVYFGDSMHSDIFPARHYSNWETVLILEELRGDEGTRSQRPEESEPLEKKGKYEGPKAKPLNTSSKKWGSFFIDSVLGLENTEDSLVYTWSCKRISTYSTIAIPSIEAIAELPLDYKFTRFSSSNSKTAGYYPNPPLVLSSDETLISK [NT5DC1]”, in the data set with HeLa Kyoto [1], the “solubility in G1/S (log2)” value is 0.0982. Further, the values for the melting temperature in the data set with HeLa Kyoto [2] (cell cycle stage: G1/S) and with HeLa Kyoto [2] (cell cycle stage: mitosis) were 55.5 °C and 55.7 °C, respectively. The values for the thermal stability score in the data set on HeLa Kyoto [3] (setting [5]) and in the data set with HeLa Kyoto [3] (cell cycle stage: mitosis) were 0.00809 and -0.565, respectively. Also, the “solubility change mitosis (log2)” value in the data set on HeLa Kyoto [4] is -0.212.
Regarding “MAQLGAVVAVASSFFCASLFSAVHKIEEGHIGVYYRGGALLTSTSGPGFHLMLPFITSYKSVQTTLQTDEVKNVPCGTSGGVMIYFDRIEVVNFLVPNAVYDIVKNYTADYDKALIFNKIHHELNQFCSVHTLQEVYIELFDQIDENLKLALQQDLTSMAPGLVIQAVRVTKPNIPEAIRRNYELMESEKTKLLIAAQKQKVVEKEAETERKKALIEAEKVAQVAEITYGQKVMEKETEKKISEIEDAAFLAREKAKADAECYTAMKIAEANKLKLTPEYLQLMKYKAIASNSKIYFGKDIPNMFMDSAGSVSKQFEGLADKLSFGLEDEPLETATKEN [ERLIN2]”, the “solubility in G1/S (log2)” value in the data set on HeLa Kyoto [1] is 0.0653. Further, the melting temperature was 52.7 °C in the data set with HeLa Kyoto [2] (cell cycle stage: G1/S) and 53.2 °C in the data set with HeLa Kyoto [2] (cell cycle stage: mitosis). The values for the thermal stability score with HeLa Kyoto [3] (setting [5]) and in the data set with HeLa Kyoto [3] (cell cycle stage: mitosis) were 2.26 and 1.92, respectively. The “solubility change mitosis (log2)” value with HeLa Kyoto [4] was -0.0221.
“MAQRGGARRPRGDRERLGSRLRALRPGREPRQSEPPAQRGPPPSGRPPARSTASGHDRPTRGAAAGARRPRMKKKTRRRSTRSEELTRSEELTLSEEATWSEEATQSEEATQGEEMNRSQEVTRDEESTRSEEVTREEMAAAGLTVTVTHSNEKHDLHVTSQQGSSEPVVQDLAQVVEEVIGVPQSFQKLIFKGKSLKEMETPLSALGIQDGCRVMLIGKKNSPQEEVELKKLKHLEKSVEKIADQLEELNKELTGIQQGFLPKDLQAEALCKLDRRVKATIEQFMKILEEIDTLILPENFKDSRLKRKGLVKKVQAFLAECDTVEQNICQETERLQSTNFALAE [BAG1]”: in the data set on HeLa Kyoto [1], the “solubility in G1/S (log2)” value was found to be 0.0346. In addition, the melting temperature with HeLa Kyoto [2] (cell cycle stage: G1/S) stood at 54.3 °C; in the data set with HeLa Kyoto [2] (cell cycle stage: mitosis), 53.7 °C. In addition, the thermal stability score is 0.492 in the data set on HeLa Kyoto [3] (setting [5]) and -2.14 in the data set on HeLa Kyoto [3] (cell cycle stage: mitosis). For the same sequence, the “solubility change mitosis (log2)” value with HeLa Kyoto [4] was 0.0327.
